The source of these data is patent publication US20120207760A1 (THERACLONE SCIENCES, published 2012).

Assay [1] addresses T1, hemagglutinin (HA) of influenza A/Solomon Islands/3/06 H1N1 (Influenza A virus A/Solomon …). The assay can be described thus: cell-based or functional assay.
The target in assay [2] is T1, hemagglutinin (HA) of influenza …. The assay can be described thus: ELISA, inactivated whole virions coated; transfection supernatant set 2. Background: ELISA stands for enzyme-linked immunosorbent assay.
In assay [3] the target is T2, hemagglutinin (HA) of influenza A/Japan/305/57 H2N2 (Influenza A virus A/Japan/305/1957 …, UniProt P03451 16-562). The assay is described as above.
The target of assay [4] is T1, hemagglutinin (HA) of influenza …. The assay can be described thus: ELISA, inactivated whole virions coated; transfection supernatant set 3.
Assay [5] has as its target T2, hemagglutinin (HA) of influenza …. The assay is described as above.
Assay [6] has as its target hemagglutinin (HA) on live influenza A virus A/Solomon Islands/3/06 H1N1 (Influenza A virus A/Solomon …). The assay can be described thus: cell-based or functional assay.
Assay [7] addresses hemagglutinin (HA) on live influenza A virus A/Wisconsin/67/05 H3N2 (Influenza A virus A/Wisconsin/67/2005 …). The assay can be described thus: cell-based or functional assay.
Assay [8] addresses T1, hemagglutinin (HA) of influenza …. The assay can be described thus: ELISA, inactivated whole virions coated; transfection supernatant set 4.
The target in assay [9] is T2, hemagglutinin (HA) of influenza …. Described as above.
Assay [10] concerns the target hemagglutinin (HA) on live influenza A virus A/California/4/09 H1N1 (Influenza A virus A/California/04/2009 …). The assay can be described thus: cell-based or functional assay.

B1: TCN-527 (5086_C06) (antibody, V domains shown)
VH: QVQLQESGPGLVKPSETLSLNCAVSGGSISNYYWSWIRQPPGKGLEWIGYISYNGRPKYNPSLTSRVTISVDTSKDQFSLELRSVTAADTALYYCARETRFGELLSPYDAFEIWGQGTMVTVSS
VL: DIQMTQSPSSLSASVGDRVTMTCRASQNIRSYLNWYQQRPGTAPKLLIYAASTLHSGVPSRFSGGGSGTDFTLTINNLQPEDFASYYCQQSYDNPQTFGQGTKVEIK
B1: in assay [1], the “% Neutralization” value came out at 12%. Also, the OD450 in assay [2] was determined as 3.69 OD450; in assay [3] it was 3.63 OD450.

B2: TCN-530 (5248_H10a) (antibody, V domains shown)
VH: QVQLVQSGAEVRKPGSSVKVSCKASGGPFMSYAIGWVRQAPGQGLEWMGGINPVFGRPHYAQKFQGRVTIATDDSTKTSYMELSSLTSEDTGMYYCASRYSRSSPGTFESWGQGTLVTVSS
VL: EIVMTQFPATLSVSPGERVTLSCRASQSVSNNLAWYQQKPGQPPRLLIYDASTRATGVPAKFSGTGSGTEFTLSISSLQSEDFAVYYCQQYHNWPPSYSFGLGTKLEIK
Turning to B2, the “% Neutralization” value in assay [1] is 64%. Moreover, the OD450 in [4] stood at 3.62 OD450; in assay [5] it was 3.43 OD450.

B3: TCN-558 (5248_H10b) (antibody, V domains shown)
VH: QVQLVQSGSEVKKPGTSVKVSCTASGSVFTNYGISWVRQAPGQGLEWMGGIIPLFGAAKYAQKFQGRVTITADESTKTVYMELSRLTSKDTAIYFCAKAPRVYEYYFDQWGQGTPVTVSS
VL: EIVMTQFPATLSVSPGERVTLSCRASQSVSNNLAWYQQKPGQPPRLLIYDASTRATGVPAKFSGTGSGTEFTLSISSLQSEDFAVYYCQQYHNWPPSYSFGLGTKLEIK
With B3, the “% Neutralization” value was determined as 84% in assay [6] and 7% in [7].

B4: TCN-528 (5087_P17) (antibody, V domains shown)
VH: QVQLVQSGSEVKKPGASVKVSCKASGYTFTNYDINWIRQAPGQGLEWMGWINPNSGTTGSAQRFQGRVTITVDTSITTVYMELSSLRSDDTAIYYCARGRELLRLQHFLTDSQSERRDCFDPWGQGTLVTVSS
VL: DIQMTQSPSSLSASVGDRVTITCRANQDIGIYLNWYQQNPGKVPKLLLHGASSLQGGVPSRFSASGSGTDFTLTIHSLQPEDLATYYCQQSRRLPYTFGQGTRVELK
Take B4: the “% Neutralization” value in [1] stood at 0%. In addition, the OD450 came to 3.66 OD450 in [2] and 3.64 OD450 in assay [3].

B5: TCN-522 (3212_I12) (antibody, V domains shown)
VH: QVQLQQWGAGLLKPSETLSLTCTVSGGSLTDYSWNWIRQPPGKGLEWIGDTLHNGYTNYNPSLRGRVSISIDTSKNQVSLRLTSVTAADTALYYCARGSGGYGGFDYFGKLRTWDFWGQGTLVTVSS
VL: DIQLTQSPSSLSASVGDRVTITCRASQGIRNDLGWYQQKPGNAPKRLIFGASSLQSGVPSRFSGSGSGTEFTLTISSLQPEDFATYYCLQHNSYPYTFGQGTKLEIK
Consider B5, for which, in assay [1], the “% Neutralization” value turned out to be 33%. For the same molecule, the OD450 is 3.48 OD450 in [2] and 0.61 OD450 in assay [3].

B6: TCN-555 (5246_L16) (antibody, V domains shown)
VH: QVQLVQSGAEVKRPGSSVKVSCTASGGIFRKNAISWVRQAPGQGLEWMGGIIAVFNTANYAQKFQNRVKITADESGNTAYMELSSLTSDDTAVYYCASHPKYFYGSGSYPDFWGQGTLVTVSS
VL: QSALTQPRSVSGSPGQSITISCTGGSSDIGASNSVSWYQQHPGKAPKLVIFDVTERPSGVPHRFSGSKSGNTASLTVSGLQPDDEADYFCCAYGGKYLVVFGGGTKVTVL
Take B6: the “% Neutralization” value in assay [6] worked out at 49%; in [7], 5%.

B7: TCN-563 (5237_B21) (antibody, V domains shown)
VH: QVQLAQSGAEVKRPGSSVKVSCTASGGIFRKNAISWVRQAPGQGLEWMGGIIAVFNTANYAQKFQGRVKITADESGNTAYMELSSLRSDDTAVYYCASHPKYFYGSGSYPDFWGQGTLVTVSS
VL: QSALTQPRSVSGSPGQSVTISCTGSSSDVGASNSVSWYQQHPGKAPKLVIYDVTERPSGVPHRFSGSKSGNTASLTVSGLQPEDEADYFCCAYGGKYLVVFGGGTKVTVL
Turning to B7, the “% Neutralization” value in assay [1] worked out at 78%. The OD450 in [2] turned out to be 3.6 OD450; in assay [3], 0.84 OD450.

B8: TCN-536 (5095_N01) (antibody, V domains shown)
VH: QVQLQQWGAGLLKPSETLSLTCAVYGGSFSVSGYYWSWIRQPPGRGLEWIGEISHGGSTNYNPSLKSRVTISVDTTKNQFSLRLSSVTAADTAVYYCARGTDPDTEVYCRVGNCAAFDYWGQGSLVTVSS
VL: EIILAQSPGTLSLSPGERATLSCRASQFVSTRSLAWYQQRPGQAPRLLIYGASSRATGIPDRFSGSGSGTDFTLTISRLEPEDFAVYYCQHYGYSPRYAFGQGSKVEIK
Take B8: the “% Neutralization” value in assay [1] stood at 75%. The OD450 in [8] is 3.52 OD450; in assay [9], 0.06 OD450.

B9: TCN-531 (5091_H13) (antibody, V domains shown)
VH: EVQLVESGGDLVQPGRSLKLSCTGSGFTFGDYGVTWVRQAPGKGLEWVGFIRTRPWGGTADTAASVKGRFTISRDDSKSLAYLQMNSLKTEDTAVYYCCRDAPPNVEVASMTNWYFDLWGRGTLVTVSS
VL: DIQLTQSPSSLSASVGDRVTITCRASQGILNCLAWYQQKPGKVPNLLMYAASTLQSGVPSRFSGSGFGTDFTLTISSLQPEDVATYYCQTYGGVSTFGGGTKVEIR
With B9, in [1], the “% Neutralization” value came to 65%. In addition, the OD450 in assay [4] is 0.1 OD450; in assay [5], 0.09 OD450.

B10: TCN-535 (5246_P19) (antibody, V domains shown)
VH: QVQLVQSGSEVKKPGTSVKVSCTASGSVFTNYGISWVRQAPGQGLEWMGGIIPLFGAAKYAQKFQGRVTITADESTKTVYMELSRLTSKDTAIYFCAKAPRVYEYYFDQWGQGTPVTVSS
VL: EIVLTQSPGTLSLSPGERATLSCRASQSVSSSQLAWYQQKPGQAPRLIIYGASTRATGIPDRFSGSGSGTDFTLTIGRLEPEDFAVFFCQQYSTSPPTFGQGTKVDFK
Take B10: the “% Neutralization” value in [1] was determined as 82%. For the same molecule, the OD450 in [8] stood at 3.52 OD450; in assay [9] it was 2.45 OD450.

B11: TCN-533 (5256_A17) (antibody, V domains shown)
VH: QVQLVQSGADVKKPGSSVTVSCKASGGSFSNYGINWVRQAPGQGLEWMGGIIPLINAPNYAPKFQGRVTITADMFSNIVSLQLTSLRTDDTAVYYCARRKMTTAIDYWGQGTLVTVSS
VL: QPVLSQPPSASASLGASVTLTCTLSSGFDNYQVAWYQQRPGKGPRFVMRVGNGGNVASKGDGIPDRFSVSGSGLNRYLTIKNIQEDDESDYYCGADHGSGNNFVSPYVFGGGTKLTVL
Turning to B11, the “% Neutralization” value in assay [1] came to 56%. For the same molecule, the OD450 stood at 3.61 OD450 in assay [4] and 3.65 OD450 in assay [5].

B12: TCN-529 (5297_H01) (antibody, V domains shown)
VH: QITLRESGPTLVKPTQTLTLTCTFSGFSLSTNGVNVGWIRQPPGKALEWLALIYWDDDKRYSPSLKRRLTITKDTSKNQVVLTLTNMDPVDTATYYCAHRPDFYGDFEYWGPGTLVTVSS
VL: QSALTQPASVSGSPGQSITISCTGSSSDIGGYNYVSWYQQHPGKAPKLMIYDVNNRPSGVSNRFSGSKSGNTASLTISGLQTDDEADYYCGSYTGSPHYVFGTGTKVTVL
In the case of B12, in assay [1], the “% Neutralization” value was found to be 0%. Also, the OD450 in assay [4] was determined as 0.16 OD450; in assay [5] it was 0.1 OD450.

B13: TCN-542 (5079_A16) (antibody, V domains shown)
VH: QVQLQESGPGLVKPSQTLSLTCTVSGGSISSGNYYWNWVRQHPGKGLEWIGYIYYRGSTFYNPSLKSRVTISIDTSKNQFSLRLSSVTAADTAVYYCAKDTRSSLDNYQYGMDVWGQGTTVTVSS
VL: QTVVTQEPSLTVSPGGTVTLTCASSTGAVTSSYFPNWFQQKPGQAPRPLIYSTTIRHSWTPARFSGSLLGGKAALTLSGVQPEDEADYYCLLYSGGDPVAFGGGTKLTVL
In the case of B13, the “% Neutralization” value in assay [6] is 99%; in [10], 15%; in assay [7], 8%.

B14: TCN-534 (5249_B02) (antibody, V domains shown)
VH: QVQLVQSGAEVKKPGSSVKVSCRESGGTFNGYTITWVRQAPGQGLEWMGGIIPMMGTVNYAQKLQGRVTITTDYFTKTAYMDLNNLRSEDTAMYYCVKIRYTGQQLLWGQGTLVTVSS
VL: DIQMTQSPSTLSASIGDRVTITCRASQSIASWLAWYQQKPGKAPKLLIYEAVNLESGVPSRFSGSGSGTDFTLTISSLQPDDFATYFCQHYGTISQTFGGGTKVEIK
Take B14: in assay [1], the “% Neutralization” value worked out at 86%. Moreover, the OD450 was 3.5 OD450 in assay [8] and 2.45 OD450 in [9].

B15: TCN-532 (5262_H18) (antibody, V domains shown)
VH: QVQLQESGPGLVKPSETLSLTCTVSGGSVSSETYYWSWIRQPPGKGLEWIGYIYYIGNTDYRPSLKSRVTISLDTSKNQFSLKLSSVTAADTAVYYCARGAYYDSSGYPAFYIWGQGTMVTVSS
VL: QSVLTQPPSVSGAPGQRVTISCTGSSSNIGSDYDVHWYKQLPGTAPKLLIFGNSNRPSGVPDRFSGSKSGTSASLAITGLQAEDEADYYCQSYDSSLSGFHVFGSGTKVTVL
On to B15, for which the “% Neutralization” value in assay [1] turned out to be 11%. Besides, the OD450 amounted to 0.13 OD450 in [4] and 0.08 OD450 in assay [5].

B16: TCN-526 (5084_C17) (antibody, V domains shown)
VH: EVLMVESGGGLVQPGGSVRLSCVASGFSFSSHWMTWVRQAPGKGLEWVANIEDDGGDKYYVDSVKGRFIISRDNAKNSVYLQMNSLRAEDTAVYFCARGSGSSDRSDYDPHYYYYLDVWGKGATVTVSS
VL: DIQLTQSPSSLSASVGDRVTITCRASQSISRYLNWYQQKPGKAPKLLLFAASTLLDGVPSRFSGSGSGTDFTLTISSLQPEDFATYYCQRNHSPSWTFGQGTRVEIK
Take B16: the “% Neutralization” value in assay [1] came to 0%. Besides, the OD450 stood at 0.08 OD450 in assay [2] and 0.07 OD450 in assay [3].
